Laboratory results: US20190040136A1 (AGENCY FOR SCIENCE TECHNOLOGY AND RESEARCH, published 2019)

What was measured:
[1] = target: T1, mouse LAG-3 coupled to human Fc (mouse, UniProt Q61790 24-442, limits assumed); experiment: ELISA, plate coated with mouse LAG-3-Fc, crude periplasmic Fab extract, anti-human Fab-HRP, absorbance 450-670 nm
T1 construct: also called murine LAG-3; Fc-coupled murine LAG-3; not shown: human Fc
T1 sequence (looked up): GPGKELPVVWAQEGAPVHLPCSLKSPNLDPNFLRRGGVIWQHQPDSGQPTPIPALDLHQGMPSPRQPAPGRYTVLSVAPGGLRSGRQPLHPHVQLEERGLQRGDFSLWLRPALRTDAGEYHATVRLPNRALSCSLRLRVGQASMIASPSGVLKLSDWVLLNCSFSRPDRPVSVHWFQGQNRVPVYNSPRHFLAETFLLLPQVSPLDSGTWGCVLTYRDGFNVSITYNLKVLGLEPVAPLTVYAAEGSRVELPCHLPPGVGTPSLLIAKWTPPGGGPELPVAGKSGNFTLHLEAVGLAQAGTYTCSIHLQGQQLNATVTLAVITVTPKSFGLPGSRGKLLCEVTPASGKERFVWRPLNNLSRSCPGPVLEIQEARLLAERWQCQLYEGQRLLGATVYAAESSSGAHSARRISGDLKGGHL
Procedure: After extensive washes in PBS Tween-20, crude periplasmic extracts from the induction were transferred into the ELISA wells in the presence of 7% milk in PBS. After 90 minutes at room temperature under agitation and extensive washes, a goat anti-human Fab antibody coupled to HRP was added. One hour la ter, plates were washed and TMB substrate was added. The reaction was stopped with 1M HCl and optical density was measured at 450 nm with a reference at 670 nm. Antibodies giving an absorbance >0.1 were selected as positive. A first clonality screening was performed by DNA fingerprinting; clonality was then confirmed by sequencing.

[2] = target: T2, human LAG-3 coupled to phycoerythrin (human, UniProt P18627 23-450, limits assumed, coupled to phycoerythrin); experiment: blocking assay, flow cytometry: phycoerythrin-coupled human LAG-3 pre-incubated with Fab, then binding to MHC class II on Daudi cells
T2 construct: also called Labelled LAG-3
T2 sequence (looked up): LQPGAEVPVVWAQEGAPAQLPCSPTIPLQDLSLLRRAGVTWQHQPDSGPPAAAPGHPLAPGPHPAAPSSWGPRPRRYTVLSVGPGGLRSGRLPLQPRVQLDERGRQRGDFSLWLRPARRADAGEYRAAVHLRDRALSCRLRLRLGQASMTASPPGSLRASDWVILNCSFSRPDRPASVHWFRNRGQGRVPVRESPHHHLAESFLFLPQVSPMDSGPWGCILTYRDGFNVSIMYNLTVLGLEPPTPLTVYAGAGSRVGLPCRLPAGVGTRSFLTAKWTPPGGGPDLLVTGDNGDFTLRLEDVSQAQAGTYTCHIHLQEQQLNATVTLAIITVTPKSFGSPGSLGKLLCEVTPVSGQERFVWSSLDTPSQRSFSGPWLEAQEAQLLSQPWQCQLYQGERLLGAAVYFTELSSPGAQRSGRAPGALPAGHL

[3] = target: T1, mouse LAG-3 coupled to human Fc; experiment: ELISA, plate coated with mouse LAG-3 coupled to human Fc, Fab, absorbance 450-670 nm
[4] = target: T2, human LAG-3 coupled to phycoerythrin; experiment: flow cytometry; inhibition of binding of PE-coupled human LAG-3 to MHC class II on Daudi cells
Procedure: Daudi cells were plated in 96-well plates and fixed/permeabilised in Fix/Perm buffer in the presence of anti-CD16/CD32 antibody. Premixes were added onto the Daudi cells and incubated for 30 minutes at 4° C. The cells were then washed three times in Perm/Wash buffer, resuspended in PBS and analysed by flow cytometry.

[5] = target: T3, biotinylated recombinant human LAG-3 (human, UniProt P18627 23-450, limits assumed, biotinylated); experiment: ELISA, antibody coated on the plate, biotinylated recombinant human LAG-3 titrated (x axis, nM), streptavidin detection, absorbance 450-570 nm
T3 construct: also called soluble recombinant human LAG-3 protein
T3 sequence (looked up): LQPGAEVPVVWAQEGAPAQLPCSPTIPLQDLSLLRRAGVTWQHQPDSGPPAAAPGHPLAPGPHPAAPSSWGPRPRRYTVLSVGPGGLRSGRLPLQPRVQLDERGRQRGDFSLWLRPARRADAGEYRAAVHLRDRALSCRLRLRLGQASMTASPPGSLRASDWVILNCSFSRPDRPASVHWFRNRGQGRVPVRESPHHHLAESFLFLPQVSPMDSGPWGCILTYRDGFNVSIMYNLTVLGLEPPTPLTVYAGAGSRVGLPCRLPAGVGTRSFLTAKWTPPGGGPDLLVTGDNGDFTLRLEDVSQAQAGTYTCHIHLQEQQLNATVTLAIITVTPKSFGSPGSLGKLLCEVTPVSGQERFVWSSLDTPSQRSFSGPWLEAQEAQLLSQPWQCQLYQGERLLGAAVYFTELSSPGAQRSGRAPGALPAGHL

B1: anti-LAG-3 antibody clone C12 Fab (Fab, V domains shown)
VH: QVQLVQSGAEVKKPGSSVKVSCKASGGTFSSYAISWVRQAPGQGLEWMGGIIPIFGTANYAQKFQGRVTITADESTSTAYMELSSLRSEDTAVYYCARALADFWSGYYYYYYMDVWGKGTTVTVSS
VL: DVVMTQSPLSLPVTPGEPASISCRSSQSLLHSDGYNYFDWYLQKPGQSPQLLIYLGSNRAAGVPDRFSGSGSGTDFTLKISRVEAEDVGVYYCMQGTHWPPTFGQGTKLEIK
[1]
  binding result: binds
[2]
  IC50: 18 nM

B2: anti-LAG-3 antibody clone 1G11 Fab (Fab, V domains shown)
VH: QLQLQESGGDVVQPGRSLRLSCAASGFTFSSYGMHWVRQAPGKGLEWVAVISYDGSNKYYADSVKGRFTISRDNSKNTLYLQMNSLRAEDTAVYYCARLPGWGAYAFDIWGQGTMVTVSS
VL: EIVLTQSPGTLSLSPGERATLSCRASQSVSSSFLAWYQQKPGQAPRLLIYGASSRATGIPDRFSGSGSGTDFTLTISRLEPEDFAVYYCQQYGPSITFGGGTKVEIK
[3]
  binding result: binds
[4]
  IC50: 378 nM

B3: anti-LAG-3 antibody clone A6 in IgG1 format (antibody, V domains shown)
VH: EVQLVQSGAEVKKPGSSVKVSCKASGYTFTSYYMHWVRQAPGQGLEWMGIINPSGGSTSYAQKFQGRVTMTRDTSTSTVYMELSSLRSEDTAVYYCAMPFGDFDYWGQGTLVTVSS
VL: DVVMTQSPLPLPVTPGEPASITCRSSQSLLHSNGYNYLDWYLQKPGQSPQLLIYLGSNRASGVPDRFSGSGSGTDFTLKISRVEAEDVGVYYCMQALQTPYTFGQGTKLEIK
notes: also called A6 IgG1
[5]
  EC50 (read off the curve): ~0.7 nM

B4: anti-LAG-3 antibody clone A6 in IgG4 format (antibody, V domains shown)
VH: EVQLVQSGAEVKKPGSSVKVSCKASGYTFTSYYMHWVRQAPGQGLEWMGIINPSGGSTSYAQKFQGRVTMTRDTSTSTVYMELSSLRSEDTAVYYCAMPFGDFDYWGQGTLVTVSS
VL: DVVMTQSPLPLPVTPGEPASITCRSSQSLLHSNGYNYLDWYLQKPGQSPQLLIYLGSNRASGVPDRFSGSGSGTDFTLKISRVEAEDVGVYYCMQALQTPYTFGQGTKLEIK
notes: also called A6 IgG4
[5]
  EC50 (read off the curve): ~0.6 nM

B5: anti-LAG-3 antibody clone F5 in IgG1 format (antibody, V domains shown)
VH: EVQLVQSGAEVKKPGASVKVSCKVSGYTLTELSMHWVRQTPGKGLEWMGGFDPEDGETIYAQKFQGRVTMTEDTSTDTAYMELSSLRSEDTAVYYCATTWFGELYYWGQGTLVTVSS
VL: ETTLTQSPGTLSLSPGERATLSCRASQSVSSGYLAWYQQKPGQAPRLLIYDASSRATGIPDRFSGSGSGADFTLTISRLQPEDFAVYYCQQYGSSRPGLTFGGGTRVEIK
notes: IgG1 format; also called F5-IgG1
[5]
  EC50 (read off the curve): ~5 nM

B6: anti-LAG-3 antibody clone F5 in IgG4 format (antibody, V domains shown)
VH: EVQLVQSGAEVKKPGASVKVSCKVSGYTLTELSMHWVRQTPGKGLEWMGGFDPEDGETIYAQKFQGRVTMTEDTSTDTAYMELSSLRSEDTAVYYCATTWFGELYYWGQGTLVTVSS
VL: ETTLTQSPGTLSLSPGERATLSCRASQSVSSGYLAWYQQKPGQAPRLLIYDASSRATGIPDRFSGSGSGADFTLTISRLQPEDFAVYYCQQYGSSRPGLTFGGGTRVEIK
notes: also called F5 IgG4
[5]
  EC50 (read off the curve): ~3 nM

B7: anti-LAG-3 antibody clone G8 in IgG1 format (antibody, V domains shown)
VH: QVQLVQSGGGVVQPGRSLRLSCAASGFTFSSYAMHWVRQAPGKGLEWVAVISYDGSNKYYADSVKGRFTISRDNSKNTLYLQMNSLRAEDTAVYYCARDPDAANWGFLLYYGMDVWGQGTTVTVSS
VL: EIVLTQSPGTLSLSPGERATLSCTTSQSVSSTSLDWYQQKPGQAPRLLIYGASSRATGIPDRFSGSGSGTDFTLTISRLEPEDFAVYYCQQYGSSLLTFGGGTKVEIK
notes: IgG1 format; also called G8 IgG1
[5]
  EC50 (read off the curve): ~0.8 nM
